Experiment [1] has as its target SIRP-α human v1 (human) (UniProt P78324). The experiment can be described thus: SPR, antibody on GLC chip, SIRP as analyte. A general note: Surface plasmon resonance follows binding to a sensor surface in real time, without labels.
In experiment [2] the target is SIRP-α mouse BALBc (mouse (BALBc)) (UniProt P97797). The experiment can be described thus: SPR, antibody on GLC chip, SIRP as analyte; Mouse BALBc SIRP-α allele.
Experiment [3] concerns the target SIRP-α mouse NOD (mouse (NOD)) (UniProt P97797). In words: SPR, antibody on GLC chip, SIRP as analyte; Mouse NOD SIRP-α allele.

One may read the Kd as the equilibrium constant for the complex coming apart. A low value points to tighter binding.

Sequence of SIRP-α human v1 (human) (P78324 31-149): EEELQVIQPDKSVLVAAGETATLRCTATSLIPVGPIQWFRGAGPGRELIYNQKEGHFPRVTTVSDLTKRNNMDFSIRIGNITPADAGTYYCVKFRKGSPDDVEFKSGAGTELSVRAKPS

B1: Hum9/AB21_HC_Mutall (antibody, V domains shown)
VH: EVQLVESGGGVVQPGGSLRLSCAASGFTFSSNAMSWVRQAPGKGLEWVAGISAGGSDTYYPASVKGRFTISRDNSKNTLYLQMNSLRAEDTAVYYCARETWNHLFDYWGQGTLVTVSS
VL: SYELTQPPSVSVSPGQTARITCSGGAYSSYYYAWYQQKPGQAPVLVIYSDDKRPSGIPERFSGSSSGTTVTLTISGVQAEDEADYYCGGYDQSSYTNPFGGGTKLTVL
As for B1, the Kd worked out at 0.012 nM in experiment [1], 140 nM in experiment [2] and 24 nM in experiment [3].
